Series [1] concerns Blanks wild-type (cDNA variant). As to the kind of experiment: fluorescence anisotropy. To be noted: n=3; assay buffer not given (as in ref 39); protein final buffer 100 mM KAc pH 7.4, 10 mM HEPES pH 7.4, 2 mM MgAc, 5 mM DTT (protein diluted 1:3 into it, then …). In general terms: Fluorescence polarisation rises when a labelled molecule tumbles more slowly, as on binding a larger partner.

For series [2], the system named is Blanks dsRBD2 mutant. As to the kind of experiment: fluorescence anisotropy. The following applies: n=3; assay buffer not given (as in ref 39); protein final buffer 100 mM KAc pH 7.4, 10 mM HEPES pH 7.4, 2 mM MgAc, 5 mM DTT (protein diluted 1:3 into it, then …).

Data on one substance can be found in publication PMC7144943.

Broadly, the Kd is the equilibrium constant for the complex coming apart.

Turning to 23 nt ds siRNA (21 bp), the Kd in series [1] is 177 nM; in series [2] it was 666 nM.
